Biological target: Cry1Aa toxin-binding region of BtR175 (BtR175-TBR) (Bombyx mori) (UniProt Q9XY09)
Assay: SPR

## Cry1Aa loop mutant S^371APN^374 (from UniProt P0A366 1-1176) (ligand)
  Kd: 13.3 nM

## Cry1Aa loop mutant P^367RRP^370 (from UniProt P0A366 1-1176) (ligand)
  Kd: 12.1 nM

## Cry1Aa loop mutant S^435VVG^438 (from UniProt P0A366 1-1176) (ligand)
  Kd: 19.9 nM
  koff: 0.00379 s⁻¹

## Cry1Aa loop 3 mutant Q^439PRG^442 (from UniProt P0A366 1-1176) (ligand)
  koff: 0.00162 s⁻¹

## Cry1Aa loop mutant G^435LVG^438 (from UniProt P0A366 1-1176) (ligand)
  Kd: 13.5 nM
  koff: 0.00559 s⁻¹

## Cry1Aa loop 3 mutant H^439MPR^442 (from UniProt P0A366 1-1176) (ligand)
  koff: 0.00105 s⁻¹

## Cry1Aa loop mutant I^443VPV^446 (from UniProt P0A366 1-1176) (ligand)
  Kd: 19.9 nM
  koff: 0.00316 s⁻¹
  kon: 158000 M⁻¹ s⁻¹

## Cry1Aa loop mutant T^439LRT^442 (from UniProt P0A366 1-1176) (ligand)
  Kd: 10.5 nM
  koff: 0.00158 s⁻¹
  kon: 151000 M⁻¹ s⁻¹

## Cry1Aa loop mutant D^439TGN^442 (from UniProt P0A366 1-1176) (ligand)
  Kd: 13.5 nM
  koff: 0.00162 s⁻¹

## Cry1Aa loop mutant A^310QMA^313 (from UniProt P0A366 1-1176) (ligand)
  Kd: 16 nM

## Cry1Aa loop mutant E^439PPA^442 (from UniProt P0A366 1-1176) (ligand)
  Kd: 11.6 nM
  kon: 121000 M⁻¹ s⁻¹

## Cry1Aa loop mutant V^443ELL^446 (from UniProt P0A366 1-1176) (ligand)
  Kd: 20.4 nM
  koff: 0.00272 s⁻¹
  kon: 133000 M⁻¹ s⁻¹

## Cry1Aa loop mutant L^367PRP^370 (from UniProt P0A366 1-1176) (ligand)
  Kd: 13.3 nM

— article PMC3546355
